Results reported in patent US20180280504A1, “GLYCAN-INTERACTING COMPOUNDS AND METHODS OF USE” (SIAMAB THERAPEUTICS, INC., priority 2014, published 2018).

How the values were obtained:
[1] = tested on: MDA-MB-231 cells expressing cell-surface Neu5Ac-STn; experiment: Flow cytometry assay to quantify antibody internalization; format: cell-based, human; conditions: for % cells exhibiting 488 fluorescence: 4° C.; for internalization (conclusion): Neu5Ac-STn-overexpressing MDA-MB-231 cells
Description: For analysis, stably transfected variants of MDA-MB-231 cells (clone TAH3.P10) that express high levels of cell surface-bound Neu5Ac-STn are harvested using 10 mM EDTA and washed with PBS comprising 1% BSA before pelleting by light centrifugation. Cell numbers and viability are determined by trypan blue dye exclusion analysis and cell concentrations are adjusted to 5×10^6 cells/ml in PBS with 1% BSA. 50 μl of cells are added to each well of an assay plate. Cells are combined with 50 μl solutions of antibody or fluorescently-labeled antibody and incubated for 1 hour at 4° C. Following this incubation period, cells are washed with PBS to remove unbound antibody and aliquots are removed for incubation for various times (15, 30, 60 minutes) at 37° C. to allow bound antibody to internalize at a physiologically relevant temperature. After each incubation, cell surface-bound antibody is removed by treating cells with acidic medium (150 mM NaCl, pH=2.5) Cells treated with unlabeled antibody are washed with PBS and fixed with paraformaldehyde fixation buffer (PFA) containing 3% paraformaldehyde and 2% sucrose in PBS for 15 minutes at room temperature. These cells are rinsed again in PBS and treated with blocking buffer made up of PBS with 1% bovine serum albumin (BSA). Cells are incubated for 30 min at room temperature, rinsed in PBS and treated with secondary antibody (allophycocyanin-labeled goat-anti-mouse IgG) for 2 hours at room temperature. All cells are then washed with PBS and subjected to flow cytometry analysis wherein 10,000 events are recorded for each sample. Residual fluorescent signal in acid-treated samples is further quenched via treatment with trypan blue dye.
Flow cytometry analysis was carried out in order to quantify the extent of antibody internalization according to the procedure of Example 15. MDA-MB-231 cells expressing high levels of cell-surface bound Neu5Ac-STn were harvested using StemPro Accutase buffer and washed with PBS comprising 5% FBS before pelleting by light centrifugation. Cell numbers and viability were determined by trypan blue dye exclusion analysis and cell concentrations were adjusted to 5×10^6 cells/ml in PBS with 5% FBS. 50 μl of cells were added to each well of an assay plate. Cells were then combined with 50 μl solutions of antibody S3F or ALEXA FLUOR® 488-conjugated antibodies S3F, 7G9 or GB26.6 and incubated for 1 hour at 4° C. Following this incubation period, cells were washed with PBS to remove unbound antibody and aliquots were removed for incubation for various times (15, 30, 60 minutes) at 37° C. After each incubation, cells were treated with acidic medium (150 mM NaCl, pH=2.5) to remove surface-bound antibody. Cells treated with unlabeled S3F were washed with PBS 5% FCS. Secondary antibody (allophycocyanin-labeled goat-anti-mouse IgG) was added to the cells and incubated for 30 min at 4° C., rinsed in PBS 5% FBS and kept on ice until flow cytometry analysis. All cells were then washed with PBS and subjected to flow cytometry analysis wherein 10,000 events were recorded for each sample.
Culturing and harvesting of MDA-STn+ cells was performed according to Example 14. Staining of MDA-STn+ cells with S3F antibody included either unlabeled S3F or S3F directly labeled with ALEXA FLUOR® 488 (Thermo Fisher Scientific, Pittsburgh, Pa.). Stained control vials were kept at 4° C. until analysis was performed. Controls included a GB26.6 antibody negative control for STn binding, unstained control, and unlabeled S3F antibody followed by an APC secondary antibody. Vials for each experimental time point (15, 30 and 60 min) were incubated in complete media at 37° C. 5% CO2 to allow for antibody internalization. Immediately prior to analysis by flow cytometry, non-internalized antibody was stripped from the cell surface of experimental samples using 150 mM NaCl pH 2.5 (acidic buffer).

[2] = Immunohistochemical staining of normal and tumor tissues (TMA); conditions: tissue microarray slides
Description: The procedure for IHC staining includes the following steps: a). obtain tissue samples and prepare specimen slides; b). prepare tissue samples for IHC staining; i. perform antigen retrieval with Diva antigen retrieval solution for 30 minutes at 95° C.; or treat slides with 250 mU/mL neuraminidase in 50 mM sodium acetate, pH 5.5 for 2.5 hours at 37° C.; ii. rinse all treated slides twice with Tris-buffered saline auto-wash (TBS-AW); iii. apply Sniper protein block to all slides for 20 minutes to reduce non-specific binding and rinse twice in TBS-AW; c). perform antibody staining; i. incubate the pretreated slides with the primary antibody. For example, anti-STn antibody S3F is applied (10 or 30 ug/mL) for 60 minutes; ii. rinse twice in TBS-AW; iii. block endogenous peroxidase with peroxidase 1 for 10 minutes; iv. rinse twice with TBS-AW; v. incubate the slides with biotinylated goat anti-mouse IgG in DaVinci Green at 1:500 dilution for 30 minutes; vi. rinse twice with TBS-AW. d). develop the staining; i. add ABC Elite and incubate the slides for 30 minutes; ii. rinse twice with TBS-AW; iii. apply Sigma Fast DAB solution for 5 minutes followed by a rinse in distilled water; iv. counterstain and coverslip the slides for analysis. […]

[3] = ALEXA FLUOR 488-conjugated antibody, acid
[4] = ALEXA FLUOR 488-conjugated antibody, no acid

B1: 7G9: anti-STn mouse monoclonal, IgG2b κ, from mouse #4407; VH SEQ ID NO: 12, VL SEQ ID NO: 9 (antibody, V domains shown)
VH: QVQLKESGPGLVAPSQNLSITCTVSGFSLTSYGVNWVRQPPGKGLEWLGVIWGDGSTNYHSALISRLIISKENSKSQVFLKLNSLQTNDTATYYCTKGFVYWGQGTLVTVSA
VL: QIVLTQSPAIMSASPGEKVTMTCSASSSVSYMHWYQQKSGTSPKRWIFDTSKLASGVPARFSGSGSGTSYSLTISSMEAEDAATYYCQQWSSNLLTFGAGTKLELK
% cells exhibiting 488 fluorescence [1, 3]: approximately 70%
% cells exhibiting 488 fluorescence [1, 4]: approximately 80%
% fluorescent cells prior to acid treatment and trypan blue exposure ([1]; ALEXA FLUOR 488-conjugated antibody, 37° C. for various times): 60-80%
% of cells exhibiting fluorescence after acidic buffer and trypan blue ([1]; ALEXA FLUOR 488-conjugated antibody, 37° C., trypan blue quench of surface signal): 20-45%
% fluorescent cells after trypan blue ([1]; ALEXA FLUOR 488-conjugated antibody, stained at 4° C., trypan blue): less than 20%
internalization (conclusion) [1]: successfully internalized

B2: S3F: 3F1 variable domains combined with IgG2a constant domains; heavy chain SEQ ID NO: 63, light chain SEQ ID NO: 64 (antibody)
heavy: QVQLQQSDAELVKPGASVKISCKASGYTFTDHAIHWVKQKPEQGLDWIGYISPGNGDIKYNEKFKDKVTLTADKSSSTACMHLNSLTSEDSAVYFCKRSLLALDYWGQGTTLTVSSAKTTAPSVYPLAPVCGDTTGSSVTLGCLVKGYFPEPVTLTWNSGSLSSGVHTFPAVLQSDLYTLSSSVTVTSSTWPSQSITCNVAHPASSTKVDKKIEPRGPTIKPCPPCKCPAPNLLGGPSVFIFPPKIKDVLMISLSPIVTCVVVDVSEDDPDVQISWFVNNVEVHTAQTQTHREDYNSTLRVVSALPIQHQDWMSGKEFKCKVNNKDLPAPIERTISKPKGSVRAPQVYVLPPPEEEMTKKQVTLTCMVTDFMPEDIYVEWTNNGKTELNYKNTEPVLDSDGSYFMYSKLRVEKKNWVERNSYSCSVVHEGLHNHHTTKSFSRTPGK
light: DIVMTQSHKFMSTSVGDRVSITCKASQDVGTNIAWYQQKPGRSPKVLIYSASTRHTGVPDRFTGSGSGTDFTLTISNVQSEDLTDYFCQQYSSFPLTFGVGTKLELKRADAAPTVSIFPPSSEQLTSGGASVVCFLNNFYPKDINVKWKIDGSERQNGVLNSWTDQDSKDSTYSMSSTLTLTKDEYERHNSYTCEATHKTSTSPIVKSFNRNEC
IHC staining pattern, cancerous tissues [2]: STn was present in most cancerous tissues
IHC staining pattern, normal tissues [2]: STn expression was rare in normal tissues
% cells exhibiting 488 fluorescence ([1]; ALEXA FLUOR 488-conjugated antibody, then 37° C. 15 min, acid): 22.5%
% cells exhibiting 488 fluorescence ([1]; ALEXA FLUOR 488-conjugated antibody, then 37° C. 15 min, no acid): 56.6%
% cells exhibiting 488 fluorescence ([1]; ALEXA FLUOR 488-conjugated antibody, then 37° C. 30 min, acid): 25.9%
% cells exhibiting 488 fluorescence ([1]; ALEXA FLUOR 488-conjugated antibody, then 37° C. 30 min, no acid): 53.1%
% cells exhibiting 488 fluorescence ([1]; ALEXA FLUOR 488-conjugated antibody, then 37° C. 60 min, acid): 31.5%
% cells exhibiting 488 fluorescence ([1]; ALEXA FLUOR 488-conjugated antibody, then 37° C. 60 min, no acid): 50.9%
% cells exhibiting 488 fluorescence [1, 3]: 9.29%
% cells exhibiting 488 fluorescence [1, 4]: 57.9%
% of cells exhibiting fluorescence after the staining period ([1]; ALEXA FLUOR 488-conjugated antibody, no acid, range over samples): 50-57%
internalization (conclusion) [1]: can be internalized
